For 1 substance, stoichiometry N results are on record in publication PMC13107553.

For orientation: stoichiometry N means a count of units in the complex or per binding partner.

In this test the target is Bicarbonate Transporter Related protein-1 (BTR1), human (human) (UniProt Q8NBS3). Nature of the test: cryo-EM structure; BTR1 in LMNG/CHS micelle buffer; 140 mmol/L KCl, pH 7.5, 3.25 Å; further structures in 11 buffer conditions (KCl, NaCl, NH4Cl, NH4Cl + NaCl, boric acid; varying pH), 13 states, inward- and outward-facing.

As for “Bicarbonate Transporter Related protein-1 (BTR1), human (from UniProt Q8NBS3 1-875) (natural protein)”, the stoichiometry N is 2.
